Experimental data: US11994512B2, “Single-cell genomic methods to generate ex vivo cell systems that recapitulate in vivo biology with improved fidelity” (Massachusetts Institute of Technology, priority 2018, dated 2024)

System: intracellular proteome of ENR+CD and ENR organoids
Experiment: LC-MS/MS TMT proteomics of ENR+CD versus ENR organoids
Type: cell-based, C57BL/6 mice
Conditions: for Average logFC: ENR+CD versus ENR organoids, sample pairs in aggregate (n=4, 2 technical replicates from two biological donors); for M1-1 Log2 Median Normalized / M1-2 Log2 Median Normalized / M2-1 Log2 Median Normalized / M2-2 Log2 Median Normalized: protein abundance ratio ENR+CD versus ENR organoids, LC-MS/MS TMT proteomics; for M1-1 Log2 Median Normalized: sample pair M1-1; for M1-2 Log2 Median Normalized: sample pair M1-2; for M2-1 Log2 Median Normalized: sample pair M2-1; for M2-2 Log2 Median Normalized: sample pair M2-2; for change: up = enriched in ENR+CD, down = enriched in ENR, FDR<0.05 and log fold change cut-off

Molecule	Average logFC	M1-1 Log2 Median Normalized	M1-2 Log2 Median Normalized	M2-1 Log2 Median Normalized	M2-2 Log2 Median Normalized	change
Q8CGK7 (protein, UniProt Q8CGK7 1-381, looked up, full-length) MGCLGNSSKTAEDQGVDEKERREANKKIEKQLQKERLAYKATHRLLLLGAGESGKSTIVKQMRILHVNGFNPEEKKQKILDIRKNVKDAIVTIVSAMSTIIPPVPLANPENQFRSDYIKSIAPITDFEYSQEFFDHVKKLWDDEGVKACFERSNEYQLIDCAQYFLERIDSVSLVDYTPTDQDLLRCRVLTSGIFETRFQVDKVNFHMFDVGGQRDERRKWIQCFNDVTAIIYVAACSSYNMVIREDNNTNRLRESLDLFESIWNNRWLRTISIILFLNKQDMLAEKVLAGKSKIEDYFPEYANYTVPEDATPDAGEDPKVTRAKFFIRDLFLRISTATGDGKHYCYPHFTCAVDTENIRRVFNDCRDIIQRMHLKQYELL	−1.357	−1.028	−1.1	−1.4805	−1.82	down
Q8K4B2 (protein, UniProt Q8K4B2 1-609, looked up, full-length) MAGRCGARGALSPQLLLFDLPPALLGELCGILDSCDGPLGWRGLAERLSNSWLDVRHIEKYVNQGKSGTRELLWSWAQKNKTIGDLLEVLQDMGHQRAIHLIINYGVSWTPSVQTHHELPFPSFPPEVKHACRENDPGPLEPANVTVDNVLVPEHNEKGTLQKTPISFQSILEGTKHFHKDFLIGEGEIFEVYRVDIRNQAYAVKLFKQEKKMQLKKHWKRFLSELEVLLLFRHPHILELAAYFTETEKLCLVYPYMSNGTLFDRLQCTNGTTPLSWHVRISVLIGIAKAIQYLHNTQPCAVICGNVSSANILLDDQLQPKLTDFAAAHFRPNLEQQSSTINMTGGGRKHLWYMPEEYIRQGRLSVKTDVYSFGIVIMEVLTGCKVVLDDPKHVQLRDLLMELMEKRGLDSCLSFLDRKIPPCPRNFSAKLFSLAGRCVATKAKLRPTMDEVLSSLESTQPSLYFAEDPPTSLKSFRCPSPLFLDNVPSIPVEDDENQNNHSVPPKEVLGTDRVTQKTPFECSQSEVTFLGLDRNRGNRGSEADCNVPSSSHEECWSPELVAPSQDLSPTVISLGSSWEVPGHSYGSKPMEKRCSSGLFCSEHEQSKKQ	1.198	1.448	0.943	1.1955	1.204	up
Q8K354 (protein, UniProt Q8K354 1-277, looked up, full-length) MSSCSRVALVTGANKGIGFAITRDLCRKFSGDVVLTARDEARGRAAVQQLQAEGLSPRFHQLDIDDPQSIRALRDFLRKEYGGLNVLVNNAGIAFRMDDPTPFDIQAEVTLKTNFFATRNVCTELLPIMKPHGRVVNISSLQGLKALENCREDLQEKFRCDTLTEVDLVDLMKKFVEDTKNEVHEREGWPDSAYGVSKLGVTVLTRILARQLDEKRKADRILLNACCPGWVKTDMARDQGSRTVEEGAETPVYLALLPPDATEPHGQLVRDKVVQTW	−1.221	−1.154	−1.435	−1.8555	−0.441	down
Q8CIV3 (protein, UniProt Q8CIV3 1-451, looked up, full-length) MLRLCFFISFMCLVKSDTDETCPSFTRLSFHSAVVGTGLSVRLMLYTQRDQTCAQIINSTALGSLNVTKKTTFIIHGFRPTGSPPVWIEELVQSLISVQEMNVVVVDWNRGATTVIYPHASSKTRQVASILKEFIDQMLVKGASLDNIYMIGVSLGAHIAGFVGESYEGKLGRVTGLDPAGPLFNGRPPEERLDPSDALFVDVIHSDTDALGYKEALGHIDFYPNGGLDQPGCPKTIFGGIKYFKCDHQMSVYLYLASLQNNCSITAYPCDSYRDYRNGKCVSCGAGQIVPCPRVGYYADSWKEYLWDRDPPMTKAFFDTAETKPYCMYHYFVDIVSWNKSVRRGFITIKLRGEDGNITESKIDHEPSAFEKYHQVSLLARFNRDLDKVAEISLLFSTGSVVGPKYKLRVLQMKLRSLAHPDRPHLCRYDLVLMENVETSFQPILCSQQQM	1.179	1.6	0.988	0.9025	1.225	up
Q8K4R4 (protein, UniProt Q8K4R4 1-332, looked up, full-length) MLLKEYRICMPLTVDEYKIGQLYMISKHSHEQSDRGEGVEVVQNEPFEDPHHGNGQFTEKRVYLNSKLPSWARAVVPKIFYVTEKAWNYYPYTITEYTCSFLPKFSIHIETKYEDNKGSNDSIFDSEAKDLEREVCFIDIACDEIPERYYKESEDPKHFKSEKTGRGQLREGWRDNHQPIMCSYKLVTVKFEVWGLQTRVEQFVHKVVRDILLIGHRQAFAWVDEWYDMTMDEVREFERATQEATNKKIGVFPPAISISSIALLPSSVRSAPSSAPSTPLSTDAPEFLSIPKDRPRKKSAPETLTLPDPEKKATLNLPGVYTSEKPCRPKSE	1.235	1.072	0.913	1.6335	1.321	up
Q8C5N3 (protein, UniProt Q8C5N3 1-908, looked up, full-length) MKSSVAHMKSSGHNRRETHSSYRRSSSPEDRYTEQERSPRDRGYSDYSRSDYERSRRGYSYDDSMESRSRDREKRRERERDADHRKRSRKSPSPDRSPARGGGQSSPQEEPTWKKKKDELDPLLTRTGGAYIPPAKLRMMQEQITDKSSLAYQRMSWEALKKSINGLINKVNISNISIIIQELLQENIVRGRGLLSRSVLQAQSASPIFTHVYAALVAIINSKFPQIGELILKRLILNFRKGYRRNDKQLCLTASKFVAHLINQNVAHEVLCLEMLTLLLERPTDDSVEVAIGFLKECGLKLTQVSPRGINAIFERLRNILHESEIDKRVQYMIEVMFAVRKDGFKDHPVILEGLDLVEEDDQFTHMLPLEDDYNPEDVLNVFKMDPNFMENEEKYKAIKKEILDEGDSDSNTDQGAGSSEDEEEEDEEEEGEDEEGGQKVTIHDKTEINLVSFRRTIYLAIQSSLDFEECAHKLLKMEFAESQTKELCNMILDCCAQQRTYEKFFGLLAGRFCMLKKEYMESFESIFKEQYDTIHRLETNKLRNVAKMFAHLLYTDSLPWSVLECIKLSEETTTSSSRIFVKIFFQELCEYMGLPKLNARLKDETLQPFFEGLLPRDNPRNTRFAINFFTSIGLGGLTDELREHLKNTPKVIVAQKPEAEQKKPALTSSSSESSSASDSSDSESDSSESSSESSSDASDSSSSSSTQSSTSGITAHSAKGTRKKRQGKARGEEVDKLARGHQALERRREGGREDQRHQEGRTERARSERRRAQNSRDADWRDPLAKHIDDRSHENSHSRVGNGREQGSHREPEDRHGEPKKRRERRDSFSENEKQRSRNQDSDNVRRKDRSKSRERSRRHSGHKGDDARCQNSAERRWEKPGRRPEQSRESKRSQDRRREKSPTTQK	−1.281	−1.581	−0.922	−0.9735	−1.648	down
Q8CFC7 (protein, UniProt Q8CFC7 1-668, looked up, full-length) MWHEARKHERKLRGMMVDYKKRAERRREYYEKIKKDPAQFLQVHGRACKVHLDSAVALAAESPVNMMPWQGDTNNMIDRFDVRAHLDHIPDYTPPLLTTISPEQESDERKCNYERYRGLVQNDFAGISEEQCLYQIYIDELYGGLQRPSEDEKKKLAEKKASIGYTYEDSTVAEVEKVAEKPEEEESPAEEESNSDEDEVIPDIDVEVDVDELNQEQVADLNKQATTYGMADGDFVRMLRKDKEEAEAIKHAKALEEEKAMYSGRRSRRQRREFREKRLRGRKISPPSYARRDSPTYDPYKRSPSESSSESRSRSRSPSPGREEKITFITSFGGSDEEAAAAAAAAAASGAAPGKPPAPPQTGGPAPGRNASTRRRSSSSSASRTSSSRSSSRSSSRSRRGYYRSGRHARSRSRSWSRSRSRSRRYSRSRSRGRRHSDGGSRDGHRYSRSPARRGGYVPRRRSRSRSRSGDRYKRGARGPRHHSSSHSRSSWSLSPSRSRSVTRSGSRSQSRSRSRSQSHSQSQSHSPSPPREKLTRPAASPAVGEKLKKTEPAAGKETGAAKPKLTPQERLKLRMQKALNRQFKADKKAAQEKMIQQEHERQEREDELRAMARKIRMKERERREKEREEWERQYSRQSRSPSPRYSREYSSSRRRSRSRSRSPHYRH	−1.139	−1.219	−0.633	−0.8625	−1.84	down
Q8K023 (protein, UniProt Q8K023 1-323, looked up, full-length) MNSKIQKIELNDGHSIPVLGFGTYATEEHLKKKSMESTKIAIDVGFCHIDCSHLYQNEEEIGQAILSKIEDGTVKREDIFYTSKLWSTSHRPELVRPSLENSLRKLNLDYVDLYLIHFPVSLKPGNELLPKDEHGNLIFDTVDLCDTWEAMEKCKDAGLAKSIGVSNFNRRQLEMILNKPGLKYKPVCNQVECHLYLNQSKLLAYCKMNDIVLVAYGALGTQRYKYCINEDTPVLLDDPVLCAMAKKYKRTPALIALRYQLDRGIVALAKSFNEERIRENMQVFDFQLASDDMKILDGLDRNLRYFPADMFKAHPNFPFFDEY	−1.451	−1.063	−0.99	−1.9945	−1.758	down
Q8CAB8 (protein, UniProt Q8CAB8 1-329, looked up, full-length) MELHILEHRLQVASVAKESIPLFTYGLIKLAFLSSKTRCKFFSLTETPEDYTIIVDEEGFLELPSSEHLSVADATWLALNVVSGGGSFSSSQPIGVTKIAKSVIAPLADQNISVFMLSTYQTDFILVRERDLPFVTHTLSSEFTILRVVNGETVAAENLSFTNGFVKPKMVQRPVIHPLSSPSNRFCVTSLDPDTLPAVATLLMDVMFYSNGVKDPMAASDDCGHIRFFSFSLIEGYISLVMDVQTQQRFPSHLLFTSASGELWKMVRIGGQPLGFDECGIVAQISEPLAAADIPAYYISTFKFDHALVPEENISGVIHALKVSQAGKH	1.494	1.555	0.678	1.5715	1.494	up
